From patent US20080274954

Molecular target: Cdc42 (SEQ ID NO: 12) expressed as an N-terminal 3x FLAG-tagged protein

B1: sh04009DH/PH protein (SEQ ID NO: 6) with FLAG-tag (3x) at the C-terminal (protein)
chain: MEELSENSSSTPSEEQDEEASQSRHRHCENKQQMRTNVIREIMDTERVYIKHLRDICEGYIRQCRKHTGMFTVAQLATIFGNIEDIYKFQRKFLKDLEKQYNKEEPHLSEIGSCFLQNQEGFAIYSEYCNNHPGACLELANLMKQGKYRHFFEACRLLQQMIDIAIDGFLLTPVQKICKYPLQLAELLKYTTQEHGDYSNIKAAYEAMKNVACLINERKRKLESIDKIARWQVSIVGWEGLDILDRSSELIHSGELTKITKQGKSQQRTFFLFDHQLVSCKKDLLRRDMLYYKGRLDMDEMELVDLGDGRDKDCNLSVKNAFKLVSRTTDEVYLFCAKKQEDKARWLQACADERRRVQEDKEMGMEISENQKKLAMLNAQKAGHGKSKGYNRCPVAPPHQGLHPIHQRHITMPTSVPQQQVFGLAEPKRKSSLFWHTFNRLTPFRK
  effector pull-down assay: amount of active (GTP-bound) Cdc42 bound to the PAK-1 effector bead, Western blot with anti-FLAG antibody: In the cell lysate (lane 4 in FIG. 2) prepared from the cells in which the sh04009DH/PH protein was co-expressed with Cdc42, the band was detected more strongly that in the cell lysate (lane 2 in FIG. 2) prepared from the cells in which only Cdc42 was expressed
